# Data as given in patent US20250361274A1, “PEPTIDE AND PEPTIDE-CONTAINING AGENT” (PEPTIDREAM INC., priority 2022, published 2025).
# Numbered stars: 1 amine (or outer) side, 2 acyl side, 3 side chain; on linkers, the order of the positions; unused ones are H or OH. Bridge positions count the residues as written; N and C are the ends. Square brackets hold non-standard residues; d marks the D form. Ends that are not written are not given here. Bph3OMe = (S)-2-amino-3-(3'-methoxy-[1,1'-biphenyl]-4-yl)propanoic acid, COc1cccc(-c2ccc(C[C@H](N[*:1])C(=O)[*:2])cc2)c1; KCOpipzaa = N6-(4-(carboxymethyl)piperazine-1-carbonyl)-L-lysine, O=C(NCCCC[C@H](N[*:1])C(=O)[*:2])N1CCN(CC(=O)[*:3])CC1; F44thp = (S)-2-amino-3-[4-(tetrahydro-2H-pyran-4-yl)phenyl]propanoic acid, O=C([C@H](Cc1ccc(C2CCOCC2)cc1)N[*:1])[*:2]; Bph3F = (S)-2-amino-3-(3'-fluoro-[1,1'-biphenyl]-4-yl)propanoic acid, O=C([C@H](Cc1ccc(-c2cccc(F)c2)cc1)N[*:1])[*:2]; Cha4tH = (S)-2-amino-3-((1r,4S)-4-hydroxycyclohexyl)propanoic acid, O=C([C@H](C[C@H]1CC[C@H](O[*:3])CC1)N[*:1])[*:2]; F4aao = (S)-2-amino-3-(4-(carboxymethoxy)phenyl)propanoic acid, O=C([C@H](Cc1ccc(OCC(=O)[*:3])cc1)N[*:1])[*:2]; 3Pal(6-Ph) = N[C@@H](Cc1ccc(-c2ccccc2)nc1)C(=O)O; Phe(4-COOH) = N[C@@H](Cc1ccc(C(=O)O)cc1)C(=O)O; Bip = N[C@@H](Cc1ccc(-c2ccccc2)cc1)C(=O)O; 3Pal(6-NH2) = Nc1ccc(C[C@H](N)C(=O)O)cn1; Phe(3-Me) = Cc1cccc(C[C@H](N)C(=O)O)c1; cisHyp = O=C(O)[C@@H]1C[C@H](O)CN1; Hyp = O=C(O)[C@@H]1C[C@@H](O)CN1; NMeF = CN[C@@H](Cc1ccccc1)C(=O)O; 4Pal = N[C@@H](Cc1ccncc1)C(=O)O; Aad = N[C@@H](CCCC(=O)O)C(=O)O; Cha = N[C@@H](CC1CCCCC1)C(=O)O; Cit = NC(=O)NCCC[C@H](N)C(=O)O; Abu = CC[C@H](N)C(=O)O
# What was measured:
# BMP7 = target: T1, BMP7 (Homo sapiens, UniProt P18075); experiment: BMP7 signal transduction inhibitory activity: SMAD1 phosphorylation by BMP7 stimulus, A549 cells; assay type: cell-based; settings: for aLISA BMP7: inhibition of SMAD1 phosphorylation by BMP7 stimulus, A549 cells
# T1 sequence (P18075 293-431): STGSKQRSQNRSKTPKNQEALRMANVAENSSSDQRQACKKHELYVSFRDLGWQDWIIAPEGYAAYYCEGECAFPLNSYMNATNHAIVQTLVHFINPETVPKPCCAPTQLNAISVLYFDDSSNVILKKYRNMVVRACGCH
# In short: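 A549 cells were stimulated with 10 nM BMP7, and the read-out was SMAD1 phosphorylation. Peptides were tested at three concentrations spanning 1 to 1,000 nM, with sets depending on the peptide series. Some peptides were run in eight-point 1/3 dilutions starting from 100 nM or 1,000 nM, with recombinant human Noggin as positive control at matching concentrations.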
# BMP4 = target: T2, BMP4 (Homo sapiens, UniProt P12644); experiment: BMP4 signal transduction inhibitory activity: SMAD1 phosphorylation by BMP4 stimulus, AlphaLISA SureFire, A549 cells; assay type: cell-based; settings: for aLISA BMP4: inhibition of SMAD1 phosphorylation by BMP4 stimulus, A549 cells
# T2 sequence (P12644 293-408): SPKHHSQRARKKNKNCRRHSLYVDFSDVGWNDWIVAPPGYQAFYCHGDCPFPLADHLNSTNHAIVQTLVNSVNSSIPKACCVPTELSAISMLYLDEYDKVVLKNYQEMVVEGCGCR
# [1] = BMP7 10 nM stimulus, peptide conc. in assay 10, 30, 90 nM
# [2] = BMP4 0.2 nM stimulus, peptide conc. in assay 2, 20, 200 nM
# [3] = SMAD1 phosphorylation, BMP7 10 nM, peptide conc. in assay 1, 10, 100 nM
# [4] = SMAD1 phosphorylation, BMP4 0.2 nM, peptide conc. in assay 0.2, 2, 20 nM
# [5] = AlphaLISA, class by peptide concentration zone
# [6] = BMP4 0.2 nM stimulus, peptide conc. in assay 0.02, 0.2, 2 nM, class symbols
# [7] = BMP7 10 nM stimulus, peptide conc. in assay 1, 10, 100 nM
# [8] = BMP4 0.2 nM stimulus, peptide conc. in assay 0.2, 2, 20 nM
substance,measurement,setting,value
383 (FG[NMeF]GYGDD[Cha]A[NMeF]LHCG-NH2; not fully specified) [compound 383],aLISA BMP7 (10 nM) % inh,BMP7; [1],F (showed less than 30% of inhibitory activity in 10 nM-addition zone and showed 30% or more of inhibitory activity in 30 nM-addition zone)
same,aLISA BMP4 (0.2 nM) % inh,BMP4; [2],ND (the inhibitory activity was less than 30% at the maximum concentration evaluated)
"116 (EKVYVKRFPYPFYFFSCA; not fully specified; MOD_RES 2 K represents N6-(4-(Carboxymethyl) piperazine-1-carbonyl)-L-lysine(KCOpipzaa); MOD_RES 6 K represents N6-(4-(Carboxymethyl) piperazine-1-carbonyl)-L-lysine(KCOpipzaa); MOD_RES 8 F represents (S)-3-(1,1'-Biphenyl-4-yl)-2-aminopropanoic acid(Bph); MOD_RES 12 F represents (S)-3-(1,1'-Biphenyl-4-yl)-2-aminopropanoic acid(Bph); MOD_RES 14 F represents (S)-4-(2-amino-2-carboxyethyl)benzoic aci) [compound 116]",aLISA BMP7,"BMP7; peptides of Synthesis 2, classes A-D, ND",C (showed less than 50% of inhibitory activity in 10 nM-addition zone and showed 50% or more of inhibitory activity in 100 nM-addition zone)
same,aLISA BMP4,"BMP4; peptides of Synthesis 2, classes A-C, ND",A (showed an inhibitory activity of 50% or more in a zone to which the peptide was added to in an amount of 0.2 nM)
"364 (FG[NMeF]G[Bip]GDE[Cha]Q[NMeF]LHCG-NH2; not fully specified (N-terminus, bridges)) [compound 364]",aLISA BMP7 (10 nM) % inh,BMP7; [3],D (showed less than 30% of inhibitory activity in 10 nM-addition zone and showed 30% or more of inhibitory activity in 100 nM-addition zone)
same,aLISA BMP4 (0.2 nM) % inh,BMP4; [4],ND (the inhibitory activity was less than 30% at the maximum concentration evaluated)
"329 (FG[NMeF]G[F44thp]GDD[Cha]A[NMeF]LHCG-NH2; not fully specified (N-terminus, bridges)) [compound 329]",aLISA BMP7 (10 nM) % inh,BMP7; [3],D (showed less than 30% of inhibitory activity in 10 nM-addition zone and showed 30% or more of inhibitory activity in 100 nM-addition zone)
same,aLISA BMP4 (0.2 nM) % inh,BMP4; [4],ND (the inhibitory activity was less than 30% at the maximum concentration evaluated)
46 (ARVYVDR[Bip]PYP[Bip]Y[Phe(4-COOH)][Phe(4-COOH)]SC) [compound 46],aLISA BMP7,BMP7; [5],ND (the inhibitory activity was less than 30% at the maximum concentration evaluated)
same,aLISA BMP4,BMP4; [5],A (showed an inhibitory activity of 50% or more in a zone to which the peptide was added to in an amount of 0.2 nM)
374 ([Phe(3-Me)]G[NMeF]G[Bip]GDD[Cha]A[NMeF]LHCG-NH2; not fully specified) [compound 374],aLISA BMP7 (10 nM) % inh,BMP7; [1],G (showed less than 30% of inhibitory activity in 30 nM-addition zone and showed 30% or more of inhibitory activity in 90 nM-addition zone)
same,aLISA BMP4 (0.2 nM) % inh,BMP4; [2],ND (the inhibitory activity was less than 30% at the maximum concentration evaluated)
"359 (FG[NMeF]G[Bip]GDE[Cha]A[NMeF]L[Abu]CG-NH2; not fully specified (N-terminus, bridges)) [compound 359]",aLISA BMP7 (10 nM) % inh,BMP7; [3],D (showed less than 30% of inhibitory activity in 10 nM-addition zone and showed 30% or more of inhibitory activity in 100 nM-addition zone)
same,aLISA BMP4 (0.2 nM) % inh,BMP4; [4],ND (the inhibitory activity was less than 30% at the maximum concentration evaluated)
270 (QRV[F4aao]VDR[3Pal(6-Ph)]SYV[Bip][4Pal][Phe(4-COOH)][Phe(4-COOH)]SCG-NH2; not fully specified) [compound 270],aLIZA BMP7 (10 nM) % inh,"BMP7; BMP7 10 nM stimulus, peptide conc. in assay 10, 100, 1000 nM, class symbols",ND (the inhibitory activity was less than 30% at the maximum concentration evaluated)
same,aLIZA BMP4 (0.2 nM) % inh,BMP4; [6],C (showed less than 30% of inhibitory activity in 0.2 nM-addition zone and showed 30% or more of inhibitory activity in 2 nM-addition zone)
318 (ERV[Phe(4-COOH)][Cha4tH][KCOpipzaa]R[3Pal(6-Ph)][KCOpipzaa]Y[Hyp][Bph3F]Y[Phe(4-COOH)][Phe(4-COOH)]SCG-NH2; not fully specified) [compound 318],aLIZA BMP7 (10 nM) % inh,"BMP7; BMP7 10 nM, peptide 10, 100, 1000 nM, Table 6",D (showed less than 30% of inhibitory activity in a zone to which the peptide was added in an amount of 10 nM and showed 30% or more of inhibitory activity in 100 nM-addition zone)
same,aLIZA BMP4 (0.2 nM) % inh,"BMP4; BMP4 0.2 nM, peptide 0.02, 0.2, 2 nM, Table 6",B (showed less than 30% of inhibitory activity in 0.02 nM-addition zone and showed 30% or more of inhibitory activity in 0.2 nM-addition zone)
418 (FG[NMeF]G[3Pal(6-Ph)]GDE[Cha][Aad][NMeF]L[Abu]C-NH2; not fully specified) [compound 418],aLISA BMP7 (10 nM) % inh,BMP7; [7],D (showed less than 30% of inhibitory activity in 10 nM-addition zone and showed 30% or more of inhibitory activity in 100 nM-addition zone)
same,aLISA BMP4 (0.2 nM) % inh,BMP4; [8],ND (the inhibitory activity was less than 30% at the maximum concentration evaluated)
"296 (ERV[Phe(4-COOH)]V[KCOpipzaa]R[3Pal(6-Ph)][KCOpipzaa]Y[Hyp][Bph3OMe]Y[Phe(4-COOH)][Phe(4-COOH)]SCG-NH2; not fully specified (N-terminus, bridges); also: cyclic peptide, ring not given here) [compound 296]",aLIZA BMP7 (10 nM) % inh,"BMP7; BMP7 10 nM stimulus, peptide conc. in assay 100, 300, 1000 nM, class symbols",ND (the inhibitory activity was less than 30% at the maximum concentration evaluated)
same,aLIZA BMP4 (0.2 nM) % inh,BMP4; [6],B (showed less than 30% of inhibitory activity in 0.02 nM-addition zone and showed 30% or more of inhibitory activity in 0.2 nM-addition zone)
414 (FG[NMeF]G[3Pal(6-Ph)]GDE[Cha][Aad][NMeF]L[cisHyp]C-NH2; not fully specified) [compound 414],aLISA BMP7 (10 nM) % inh,BMP7; [7],D (showed less than 30% of inhibitory activity in 10 nM-addition zone and showed 30% or more of inhibitory activity in 100 nM-addition zone)
same,aLISA BMP4 (0.2 nM) % inh,BMP4; [8],ND (the inhibitory activity was less than 30% at the maximum concentration evaluated)
"344 (FG[NMeF]G[Bip]GDD[Cha]A[NMeF][Cha]HCG-NH2; not fully specified (N-terminus, bridges)) [compound 344]",aLISA BMP7 (10 nM) % inh,BMP7; [3],D (showed less than 30% of inhibitory activity in 10 nM-addition zone and showed 30% or more of inhibitory activity in 100 nM-addition zone)
same,aLISA BMP4 (0.2 nM) % inh,BMP4; [4],A (showed less than 30% of inhibitory activity in 2 nM-peptide-addition zone and showed 30% or more of inhibitory activity in 20 nM-addition zone)
150 ({CH2CO}-ERVYVDR[Bip]PYV[Bip]Y[Phe(4-COOH)][3Pal(6-NH2)]SCG-NH2; thioether N-17; not fully specified) [compound 150],aLISA BMP7,"BMP7; peptides of Synthesis 1, classes E, F, ND",E (showed 50% or more of inhibitory activity in a zone to which the peptide was added in an amount of 10 nM)
same,aLISA BMP4,"BMP4; peptides of Synthesis 1, classes D-F, ND",E (showed less than 50% of inhibitory activity in 0.2 nM-addition zone and showed 50% or more of inhibitory activity in 2 nM-addition zone)
"367 (FG[NMeF]GFGDE[Cha]Q[NMeF]LHCG-NH2; not fully specified (N-terminus, bridges)) [compound 367]",aLISA BMP7 (10 nM) % inh,BMP7; [3],D (showed less than 30% of inhibitory activity in 10 nM-addition zone and showed 30% or more of inhibitory activity in 100 nM-addition zone)
same,aLISA BMP4 (0.2 nM) % inh,BMP4; [4],ND (the inhibitory activity was less than 30% at the maximum concentration evaluated)
58 (Ac-ARVYVD[Cit][Bip]PYP[Bip]Y[Phe(4-COOH)][Phe(4-COOH)]SCG-NH2; thioether (positions not given here); not fully specified (bridges)) [compound 58],aLISA BMP7,BMP7; [5],C (showed less than 50% of inhibitory activity in 10 nM-addition zone and showed 50% or more of inhibitory activity in 100 nM-addition zone)
same,aLISA BMP4,BMP4; [5],A (showed an inhibitory activity of 50% or more in a zone to which the peptide was added to in an amount of 0.2 nM)
"349 (FG[NMeF]G[Bip]GDD[Cha]A[NMeF]LLCG-NH2; not fully specified (N-terminus, bridges)) [compound 349]",aLISA BMP7 (10 nM) % inh,BMP7; [3],D (showed less than 30% of inhibitory activity in 10 nM-addition zone and showed 30% or more of inhibitory activity in 100 nM-addition zone)
same,aLISA BMP4 (0.2 nM) % inh,BMP4; [4],ND (the inhibitory activity was less than 30% at the maximum concentration evaluated)
